Experimental data: article PMC3576809

Target: recombinant full-length kif2a, MBP fusion protein (Xenopus) (UniProt Q91637)
Assay: pull-down; 1 µM MBP-kif2a added to stage 3 embryo cytoplasmic extract for 15 min, retrieved on amylose resin (15 min), washed with PBS with 0.01% Tween; importin α immunoblot quantified, normalized to kif2a intensity

UniProt Q91637, sequence (Q91637 whole entry, the tested form may be a part): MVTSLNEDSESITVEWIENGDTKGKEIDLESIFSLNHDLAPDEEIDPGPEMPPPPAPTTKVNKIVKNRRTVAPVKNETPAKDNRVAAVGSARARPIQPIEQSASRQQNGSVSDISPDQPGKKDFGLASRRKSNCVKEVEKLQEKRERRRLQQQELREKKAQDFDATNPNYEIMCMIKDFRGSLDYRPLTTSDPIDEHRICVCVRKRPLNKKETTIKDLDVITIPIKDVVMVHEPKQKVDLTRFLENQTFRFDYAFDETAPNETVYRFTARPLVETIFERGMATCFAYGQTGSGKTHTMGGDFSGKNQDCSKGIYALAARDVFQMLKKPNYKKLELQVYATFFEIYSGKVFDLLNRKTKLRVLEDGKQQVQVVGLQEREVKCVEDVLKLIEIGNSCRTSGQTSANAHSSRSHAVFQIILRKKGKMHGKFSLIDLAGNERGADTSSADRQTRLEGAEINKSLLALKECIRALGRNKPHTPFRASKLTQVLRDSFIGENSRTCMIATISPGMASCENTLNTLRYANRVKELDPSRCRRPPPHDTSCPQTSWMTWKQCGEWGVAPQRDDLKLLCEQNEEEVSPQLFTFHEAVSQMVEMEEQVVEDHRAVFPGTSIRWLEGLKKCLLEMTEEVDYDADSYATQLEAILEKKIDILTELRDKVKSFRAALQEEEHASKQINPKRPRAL

fold of importin α retrieved from stage 3 extracts against stage 8 extracts: 10 fold
Substance: importin α (endogenous, Xenopus laevis egg and embryo extracts) (natural protein)
